{"source": "patent US20110015136A1", "molecular_target": "human membrane attack complex (MAC), C5b-9 complex (human) (UniProt P01031)", "assay": "cell-based or functional assay"}
{"binder": "human CD59, glycosylphosphatidylinositol (GPI)-anchored membrane protein (protein, UniProt P13987 26-102, looked up, GPI anchor at Asparagine 77 (mature numbering)) LQCYNCPNPTADCKTAVNCSSDFDACLITKAGLQVYNKCWKFEHCNFNDVTTRLRENELTYYCCKKDLCNFNEQLEN", "values": [{"measurement": "complement mediated cell lysis (PI uptake, FACS; hepa-1c1c7 cells, 1000 vp/cell AdCAGCD59, 1% NHS)", "result": 12.3, "unit": "%"}, {"measurement": "fold reduction of complement mediated cell lysis", "result": 8, "unit": "fold"}, {"measurement": "inhibition of cell lysis at 250 vp/cell of AdCAGCD59", "result": "> 50", "unit": "%"}, {"measurement": "inhibition of cell lysis at 500 vp/cell of AdCAGCD59", "result": "> 70", "unit": "%"}, {"measurement": "reduction in MAC immunofluorescence intensity on corneal endothelium", "result": 86, "unit": "%"}, {"measurement": "reduction in MAC immunofluorescence on eyecups at 7.5 min NHS treatment", "result": 68, "unit": "%"}, {"measurement": "reduction in MAC immunofluorescence on eyecups at 15 min NHS treatment", "result": 56, "unit": "%"}, {"measurement": "reduction in mean MAC immunofluorescence intensity on RPE of eyecup tissues", "result": 55, "unit": "%"}]}
